The record followed here is US20210324051A1 (published 2021).

Assay in all cases: ELISA
On the technique in general: In an ELISA, binding on a coated surface is turned into a signal by an enzyme label.

Experiment [1] has as its target Angola strain MARV GP ectodomain lacking residues 257-425 of the mucin-like domain (Marburg virus, Angola strain, UniProt Q1PD50 19-648).
For experiment [2], the target named is EBOV Mayinga strain GP ectodomain lacking residues 314-462 of the mucin-like domain (Ebola virus, Mayinga strain, UniProt Q05320 33-650).
The target in experiment [3] is T1, Angola strain MARV GP ectodomain containing the mucin-like domain (Marburg virus, Angola strain, UniProt Q1PD50 19-648).
T1 chain: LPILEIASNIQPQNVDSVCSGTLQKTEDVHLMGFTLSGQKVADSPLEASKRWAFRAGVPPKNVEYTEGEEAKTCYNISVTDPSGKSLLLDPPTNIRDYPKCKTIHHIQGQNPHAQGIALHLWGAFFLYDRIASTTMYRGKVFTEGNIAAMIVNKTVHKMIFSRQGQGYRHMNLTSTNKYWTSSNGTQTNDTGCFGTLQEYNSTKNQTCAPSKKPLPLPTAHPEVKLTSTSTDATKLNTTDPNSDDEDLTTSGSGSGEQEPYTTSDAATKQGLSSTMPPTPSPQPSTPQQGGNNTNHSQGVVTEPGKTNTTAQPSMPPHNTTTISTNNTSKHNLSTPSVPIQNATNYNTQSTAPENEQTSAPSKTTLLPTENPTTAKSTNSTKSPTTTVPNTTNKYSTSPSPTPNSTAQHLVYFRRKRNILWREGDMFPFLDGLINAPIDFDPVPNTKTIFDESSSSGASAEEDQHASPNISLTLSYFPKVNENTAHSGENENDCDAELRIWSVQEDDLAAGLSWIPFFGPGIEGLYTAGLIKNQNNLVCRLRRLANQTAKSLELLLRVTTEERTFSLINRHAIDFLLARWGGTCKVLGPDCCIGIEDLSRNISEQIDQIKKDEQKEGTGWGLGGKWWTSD

Experiment [4] deals with T2, EBOV Mayinga strain GP ectodomain containing the glycan cap and mucin-like domain (Ebola virus, Mayinga strain, UniProt Q05320 33-650).
T2 chain: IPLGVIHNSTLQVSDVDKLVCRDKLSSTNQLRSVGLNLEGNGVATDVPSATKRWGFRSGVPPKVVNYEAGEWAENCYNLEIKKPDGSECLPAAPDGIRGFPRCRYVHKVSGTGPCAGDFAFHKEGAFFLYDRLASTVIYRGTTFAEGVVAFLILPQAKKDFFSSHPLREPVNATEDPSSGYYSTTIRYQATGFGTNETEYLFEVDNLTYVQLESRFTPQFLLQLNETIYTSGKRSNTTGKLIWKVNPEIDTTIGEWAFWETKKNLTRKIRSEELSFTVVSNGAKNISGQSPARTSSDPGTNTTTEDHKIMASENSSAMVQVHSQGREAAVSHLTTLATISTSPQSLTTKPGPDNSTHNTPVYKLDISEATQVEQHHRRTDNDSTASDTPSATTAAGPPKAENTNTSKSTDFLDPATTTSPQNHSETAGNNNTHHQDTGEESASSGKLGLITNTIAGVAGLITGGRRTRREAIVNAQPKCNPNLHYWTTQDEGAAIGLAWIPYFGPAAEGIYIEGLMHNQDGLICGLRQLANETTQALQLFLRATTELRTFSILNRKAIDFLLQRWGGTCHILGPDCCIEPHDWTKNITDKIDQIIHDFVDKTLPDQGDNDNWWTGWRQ

Experiment [5] has as its target T3, EBOV Mayinga strain cleaved GP ectodomain (Ebola virus, Mayinga strain, UniProt Q05320 33-650).
T3 chain: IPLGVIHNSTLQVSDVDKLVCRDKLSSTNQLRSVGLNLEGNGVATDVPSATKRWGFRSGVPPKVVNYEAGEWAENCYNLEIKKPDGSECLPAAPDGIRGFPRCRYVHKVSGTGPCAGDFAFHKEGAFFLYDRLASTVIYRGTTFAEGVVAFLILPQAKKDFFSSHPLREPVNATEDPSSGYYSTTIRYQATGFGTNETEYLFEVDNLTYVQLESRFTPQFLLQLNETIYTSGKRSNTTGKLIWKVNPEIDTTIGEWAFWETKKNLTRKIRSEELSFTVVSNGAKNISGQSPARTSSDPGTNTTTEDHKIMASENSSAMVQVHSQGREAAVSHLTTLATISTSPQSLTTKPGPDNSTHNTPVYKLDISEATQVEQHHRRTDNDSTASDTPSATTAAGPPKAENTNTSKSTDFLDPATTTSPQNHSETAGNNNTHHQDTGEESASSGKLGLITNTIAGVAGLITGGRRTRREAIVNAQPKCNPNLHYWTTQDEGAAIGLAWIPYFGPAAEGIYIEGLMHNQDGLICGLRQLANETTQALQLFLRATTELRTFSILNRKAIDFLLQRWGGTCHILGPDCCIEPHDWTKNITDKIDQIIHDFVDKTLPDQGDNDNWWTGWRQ

The target in experiment [6] is T4, Ravn strain cleaved MARV GP ectodomain (Marburg virus, Ravn strain, UniProt Q1PDC7 19-648).
T4 chain: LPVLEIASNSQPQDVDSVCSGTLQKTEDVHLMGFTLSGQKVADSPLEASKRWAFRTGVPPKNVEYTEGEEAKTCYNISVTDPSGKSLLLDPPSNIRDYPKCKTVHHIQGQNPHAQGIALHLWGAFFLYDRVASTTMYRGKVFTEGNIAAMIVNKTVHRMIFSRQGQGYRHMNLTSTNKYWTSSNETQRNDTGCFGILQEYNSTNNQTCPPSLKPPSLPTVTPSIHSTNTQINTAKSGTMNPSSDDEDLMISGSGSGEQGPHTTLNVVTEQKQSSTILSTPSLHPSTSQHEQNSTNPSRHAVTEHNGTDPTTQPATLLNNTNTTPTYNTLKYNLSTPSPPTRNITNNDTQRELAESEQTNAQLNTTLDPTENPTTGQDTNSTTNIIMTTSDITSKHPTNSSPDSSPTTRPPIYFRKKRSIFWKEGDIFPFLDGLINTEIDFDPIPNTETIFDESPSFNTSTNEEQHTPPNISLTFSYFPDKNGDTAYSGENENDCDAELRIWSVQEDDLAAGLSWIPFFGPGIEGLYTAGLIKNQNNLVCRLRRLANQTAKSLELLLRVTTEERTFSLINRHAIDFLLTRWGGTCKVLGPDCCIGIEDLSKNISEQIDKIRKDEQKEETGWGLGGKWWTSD

B1: MR78 human monoclonal antibody (antibody, V domains shown)
VH: QLQLQESGPGLVKPSETLSLTCTVSGGSISSSSYYWGWIRQPPGKGLEWIGSVYYSGGASYNPSLKSRATISVDTSKNQFSLNLDSVSAADTAIYYCASIYGSGTFYYYFYMDVWGKGSTVTVSS
VL: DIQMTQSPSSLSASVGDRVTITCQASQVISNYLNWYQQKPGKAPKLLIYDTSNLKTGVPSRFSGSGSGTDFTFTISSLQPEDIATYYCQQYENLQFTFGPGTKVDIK
What is called EC50 is the concentration needed to bring the measured effect to its halfway point. As for B1, the EC50 in experiment [1] is 2.3 µg/mL; in experiment [2], more than 1000 µg/mL; in experiment [3], 1.4 µg/mL; in experiment [4], more than 1000 µg/mL; in experiment [5], 107 µg/mL; in experiment [6], 1.1 µg/mL.

B2: MR241 (antibody, V domains shown)
VH: QVQLQESGPGLVKPSETLSLTCTVSGASISGNFWSWIRQPPGKGLEYIGYMSDIGTTNYSPSLKSRVTISVDTSKNQFSLNLTSVTAADAAVYYCARLVAVPGFFYHYYMDVWGEGTLVTVSS
VL: DIVMTQSPSSVSASVGDRVTITCRASQGISGWLAWYQQKPGKAPKLLIYATSTLQSGVPSRFSGSESGTAFTLTISSLQPEDFATYYCQQANSFPLTFGGGTKVEIK
For B2, the EC50 was 4 µg/mL in experiment [1]; more than 1000 µg/mL in experiment [2]; 2.2 µg/mL in experiment [3]; more than 1000 µg/mL in experiment [4]; more than 1000 µg/mL in experiment [5]; 1.2 µg/mL in experiment [6].

B3: MR201 (antibody, V domains shown)
VH: QLQLQESGPGLVKPSETLFLSCAVSGGSIAGSTHYWGWIRQPPGKGLEWIGSISESGSTYHNPSLKSRVTISVDTSKNYFSLNLSSVTAADTAVYYCARIVGQSGTFIYYYYAMDVWGTGTLVTVSS
VL: DIQLTQSPSFLSASVGDRVTITCRASQGISSYLAWYQQKPGKAPKLLIYAASTLQRGVPSRFSGSGSGTEFTLTISSLQPEDSATYYCQQLNSYLALIFGGGT
With B3, the EC50 was 1.9 µg/mL in experiment [1]; more than 1000 µg/mL in experiment [2]; 1.5 µg/mL in experiment [3]; more than 1000 µg/mL in experiment [4]; more than 1000 µg/mL in experiment [5]; 0.5 µg/mL in experiment [6].
